According to US20160209421A1 (UNIVERSITY OF TOKYO, published 2016):
Bridge positions count the residues as written; N and C are the ends. Square brackets hold non-standard residues; d marks the D form. * marks the point of attachment. chloroacetamidine = chloroacetamidine warhead on ornithine δ-NH2, N=C(CCl)*; Ahp(2) = CCCCC[C@H](N)C(=O)O; Orn = NCCC[C@H](N)C(=O)O

B1: VB1C12-Cl-amidine analog (peptide)
peptide: {CH2CO}-[dF]NA[Ahp(2)]YPY[Orn](chloroacetamidine)PP[Ahp(2)]TSC-NH2
modifications: thioether N-14
SMILES: CCCCC[C@@H]1NC(=O)[C@H](C)NC(=O)[C@H](CC(N)=O)NC(=O)[C@@H](Cc2ccccc2)NC(=O)CSC[C@@H](C(N)=O)NC(=O)[C@H](CO)NC(=O)[C@H]([C@@H](C)O)NC(=O)[C@H](CCCCC)NC(=O)[C@@H]2CCCN2C(=O)[C@@H]2CCCN2C(=O)[C@H](CCCNC(=N)CCl)NC(=O)[C@H](Cc2ccc(O)cc2)NC(=O)[C@@H]2CCCN2C(=O)[C@H](Cc2ccc(O)cc2)NC1=O
B2: VB1C12 peptide (peptide)
peptide: {CH2CO}-[dF]NA[Ahp(2)]YPYRPP[Ahp(2)]TSC-NH2
modifications: thioether N-14
SMILES: CCCCC[C@@H]1NC(=O)[C@H](C)NC(=O)[C@H](CC(N)=O)NC(=O)[C@@H](Cc2ccccc2)NC(=O)CSC[C@@H](C(N)=O)NC(=O)[C@H](CO)NC(=O)[C@H]([C@@H](C)O)NC(=O)[C@H](CCCCC)NC(=O)[C@@H]2CCCN2C(=O)[C@@H]2CCCN2C(=O)[C@H](CCCNC(=N)N)NC(=O)[C@H](Cc2ccc(O)cc2)NC(=O)[C@@H]2CCCN2C(=O)[C@H](Cc2ccc(O)cc2)NC1=O
B3: VB1C20 peptide (peptide)
peptide: {CH2CO}-[dF]DA[Ahp(2)]YPFRPP[Ahp(2)]AHC-NH2
modifications: thioether N-14
SMILES: CCCCC[C@@H]1NC(=O)[C@H](C)NC(=O)[C@H](CC(=O)O)NC(=O)[C@@H](Cc2ccccc2)NC(=O)CSC[C@@H](C(N)=O)NC(=O)[C@H](Cc2c[nH]cn2)NC(=O)[C@H](C)NC(=O)[C@H](CCCCC)NC(=O)[C@@H]2CCCN2C(=O)[C@@H]2CCCN2C(=O)[C@H](CCCNC(=N)N)NC(=O)[C@H](Cc2ccccc2)NC(=O)[C@@H]2CCCN2C(=O)[C@H](Cc2ccc(O)cc2)NC1=O

Legend:
Human PAD4 = Human PAD4 (human, UniProt Q9UM07 1-663); experiment: cell-based or functional assay
Human PAD4, sequence (Q9UM07 whole entry): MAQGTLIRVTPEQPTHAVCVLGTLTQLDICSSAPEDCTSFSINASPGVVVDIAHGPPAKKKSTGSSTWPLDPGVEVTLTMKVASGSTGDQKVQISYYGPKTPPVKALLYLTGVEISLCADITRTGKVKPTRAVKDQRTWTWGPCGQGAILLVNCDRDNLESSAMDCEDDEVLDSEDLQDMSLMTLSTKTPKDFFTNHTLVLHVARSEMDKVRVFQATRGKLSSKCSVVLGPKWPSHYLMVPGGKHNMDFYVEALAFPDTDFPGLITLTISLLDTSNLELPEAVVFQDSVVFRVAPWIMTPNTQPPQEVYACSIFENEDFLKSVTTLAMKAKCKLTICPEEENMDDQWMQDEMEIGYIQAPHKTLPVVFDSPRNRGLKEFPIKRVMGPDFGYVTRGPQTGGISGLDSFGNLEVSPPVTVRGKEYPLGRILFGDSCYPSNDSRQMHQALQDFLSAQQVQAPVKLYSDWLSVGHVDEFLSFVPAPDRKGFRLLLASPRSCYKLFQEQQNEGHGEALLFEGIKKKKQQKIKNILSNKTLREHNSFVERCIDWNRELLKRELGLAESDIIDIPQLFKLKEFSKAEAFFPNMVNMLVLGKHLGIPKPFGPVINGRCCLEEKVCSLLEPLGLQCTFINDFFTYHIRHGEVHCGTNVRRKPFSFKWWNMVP

His-PAD4 = target: T1, His-PAD4 (human, UniProt Q9UM07 1-663); experiment: SPR (Biacore T100, Ni-NTA sensor chip, His-PAD4 immobilized, peptide injected, 25 C)
T1 construct: Immobilised on a Ni-NTA sensor chip for SPR; No other PAD4 is described; also called peptidyl arginine deaminase 4; not shown: His tag
T1 sequence (Q9UM07 whole entry): as above
Protocol: Analysis of a reaction rate was performed at 25° C. using Biacore T100 instrument (GE healthcare) and a Ni-NTA sensor chip. His-PAD4 was immobilized on a chip surface. In any experiment, modified HBS-EP+(10 mM HEPES-KOH [pH 7.4], 150 mM NaCl, 50 μM EDTA, 0.05% Tween 20, 0.1% DMSO) was used as a running buffer. The reaction rate data were corrected by injecting five peptides having respectively different concentrations for one minute at a flow rate (10 mM HEPES-KOH [pH 7.4], 150 mM NaCl, 50 μM EDTA, 0.05% Tween 20, 0.1% DMSO). Peptide dissociation was performed for one minute during injection and for 3 minutes after the last injection.
Background binding was monitored by performing blank buffer injection twice before sample injection and once after sample injection in order to double reference with the surface of a negative control having no His-PAD4 bound thereto but having nickel. The binding sensorgram, the binding sensorgram was analyzed using the Biacore software.

| Binder | IC50 (read off the curve) (Human PAD4) [nM] | Kd (His-PAD4) [nM] | koff (His-PAD4) [s⁻¹] | kon (His-PAD4) [M⁻¹ s⁻¹] |
| --- | --- | --- | --- | --- |
| B1 | ~8000 | – | – | – |
| B2 | – | 55 | 0.00664 | 121000 |
| B3 | – | 38.7 | 0.00356 | 92100 |
